167 variants from the RNAGym collection of RNA variant scans (doi:10.1073/pnas.2313332121) can be followed below.

B1: TPR t1 (parent)
chain: GACCAAUCUGCCCUCAGAGCUCGAGAACAUCUUCGGAUGCAGAGGAGGCAGGCUUCGGUGGCGCGAUAGCGCCAACGUCCUCAACCUCCAAUGCAUCCCACCACAUGAUGAUGCCUGAAGAGCCUUGGUUUUUUG

In this series the parent is B1. The series can be described thus: polymerase ribozyme fitness, log enrichment relative to wild type (log ratio); higher = more active; in vitro selection for triplet polymerase activity. An outline of the steps:
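Fitness compares each genotype's enrichment to that of the wild type on a logarithmic scale, averaging replicates with inverse-variance weights. The logarithm is base 2. Enrichment came from Illumina sequencing of input and output libraries after one triplicate round of in vitro selection, which included frozen incubation at −7 °C, of PCR-built, transcribed mutant libraries of each subunit of a heterodimeric triplet polymerase ribozyme. Only genotypes with ≥10 input reads and ≥1 read per output were kept.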
In the case of G36C G45C C98U, the “polymerase ribozyme fitness (log ratio)” value is -3.33. In the case of G36U C73U G107C it was -6.17. In the case of U38A G63U U131A it was -2.72; in that of G36U U106A G127C, -1.83. In the case of C34U C70U it was -5.65; in that of G35U G61A C98G G107C C115A G120A, -7.51; in that of G36U A46U C72G C82A U87C U130G, -3.54. With A37U A111U, the “polymerase ribozyme fitness (log ratio)” value is -3.3. In the case of G35C C98A A103C C123U it was -5.49; in that of A37G U132C, -1.86. For the variant A37G C76U, the “polymerase ribozyme fitness (log ratio)” value is -1.3. In the case of A37U U96G it was -0.312; in that of G36U C101A, -2.53. In the case of G35U C56U it was -4.99.

Turning to A37U A43C, the “polymerase ribozyme fitness (log ratio)” value was -1.99.

In the case of G36C C104U, the “polymerase ribozyme fitness (log ratio)” value is -1.1.

With G36A U92A, the “polymerase ribozyme fitness (log ratio)” value was -3.67. In the case of C34G C73A it was -5.35; in that of G36C C56G C72U, -2.79.

As for A37G C49G C82U, the “polymerase ribozyme fitness (log ratio)” value is -0.637. In the case of A37U G52A G61A A105G G127C it was -4.21. In the case of C34G G39A C56A G69U C79A A103U C104G G110A C115G it was -7.05.

As for A37U G47U U55G C114U, the “polymerase ribozyme fitness (log ratio)” value was -3.49. As for C34U G71A, the “polymerase ribozyme fitness (log ratio)” value is -5.88. In the case of A37C U67C U81C C123A it was -5.95.

For the variant U38A A75U C82U A83C C88G U112C G122A, the “polymerase ribozyme fitness (log ratio)” value was -2.99. In the case of G35U G47A it was -5.64; in that of A37U G120A, 1.2; in that of G36A A43C, -3.56. As for C34U C72A, the “polymerase ribozyme fitness (log ratio)” value is -3.94. In the case of A37G G52A it was -1.1; in that of G35A G42C, -5.64. A37U G77C: the “polymerase ribozyme fitness (log ratio)” value is -1.31.

As to G36A G48U A84G, the “polymerase ribozyme fitness (log ratio)” value was -2.02. In the case of G36U G117U it was -3.26; in that of C34G U106A, -4.72. In the case of A37U A41U C88U it was -2.75.

For G36C G52C C70A U106A, the “polymerase ribozyme fitness (log ratio)” value is -2.71. In the case of A37U G61U A83G C88A it was -2.28; in that of C34G C80U C89G G120C U129C, -6.96.

Take A37U U55G: the “polymerase ribozyme fitness (log ratio)” value was -0.465.

Regarding G36A A84C G117A, the “polymerase ribozyme fitness (log ratio)” value was -2.24. As for A37C C123G, the “polymerase ribozyme fitness (log ratio)” value worked out at 0.773. In the case of A37C G44A C53U C104U it was -1.64; in that of A37G C73A C82A A83G, -2.53. In the case of G36C G60U A118U it was -0.591; in that of G35C G39U, -5.8; in that of C34G G69U C123A, -2.45. In the case of G35U C40U G61A C124U it was -4.87; in that of C34U G60U C99U, -3.7; in that of G36C G60A C98U, -2.39. For the variant G36A C70U, the “polymerase ribozyme fitness (log ratio)” value is -1.06. In the case of A37U C49U C64U C114U it was -3.02; in that of G36U A118U, -1.08; in that of G36C G57C G61A U106C G113U, -3.7. In the case of G36A G52C A95G G113A it was -3.73.

Take G36A A66C G120U: the “polymerase ribozyme fitness (log ratio)” value is -1.74.

Take G35U C70U C73A: the “polymerase ribozyme fitness (log ratio)” value is -7.04.

As for G36U A121G, the “polymerase ribozyme fitness (log ratio)” value was determined as 0.373. In the case of G36U U130G it was -2.05. In the case of G35A C72G U112C it was -2.35; in that of G35C C97A, -5.43.

Turning to G36U G57A, the “polymerase ribozyme fitness (log ratio)” value was -2.09. In the case of A37G G44C C72G U78C it was -1.05; in that of G35A G42A U106A U112G A121C G127U G128A, -5.37; in that of G36U G51C G69U C115U, -3.32. In the case of G35C C53U C56G G120A it was -2.61; in that of G36A A43C C73G, -4.51; in that of A37G C94G, -2.1. In the case of C34U G61A it was -4.7; in that of G36A G42A C72U, -4.34. Consider G36U C86G, for which the “polymerase ribozyme fitness (log ratio)” value is -2.22. In the case of A37C A43U C49G it was -3.33; in that of G36U U116A, -4.2. In the case of U38C A43U it was -2.21; in that of U38C C40U A46U U55A C73U, -3.3; in that of G35U G63A U67G C88A C124A G127C U132A, -7.2. In the case of G36U C70G C89U it was -5.64. G36C G113U U129A: the “polymerase ribozyme fitness (log ratio)” value is -4.27. In the case of G36U C80A it was -3.93.

As to A37C A46C C124G, the “polymerase ribozyme fitness (log ratio)” value was found to be 0.609. In the case of A37U A100C A103U it was -5.74. In the case of A37C G45C C72U C104G C115G it was -7.48; in that of A37U C40U A50C G51C A74U U109A U131G, -5.36. For A37C A121U, the “polymerase ribozyme fitness (log ratio)” value came out at 1.62. As for U38A A111U, the “polymerase ribozyme fitness (log ratio)” value is -4.52.

Turning to A37C G60U C82U A83U U87A, the “polymerase ribozyme fitness (log ratio)” value was -2.34. As to G35A U78G, the “polymerase ribozyme fitness (log ratio)” value is -4.14. In the case of G35C C88A it was -5.61; in that of A37G G42A C79G C104U, -4.86; in that of G35C C49G C98G, -2.89. In the case of G35A C72U C98A G117U it was -7.49; in that of G36C C49G C102A U125A, -4.36; in that of A37G G60U C80A, -5.24. In the case of G36A A121U G128A it was 0.119. As to G36U A46U G52U G120A, the “polymerase ribozyme fitness (log ratio)” value is -2.3.

With C34G G120C, the “polymerase ribozyme fitness (log ratio)” value was -4.78.

Take G36A C49A G60A A118G: the “polymerase ribozyme fitness (log ratio)” value was -1.7. In the case of A37U G51U G60C C85U U96A G113A it was -4.21; in that of U38A C89G C114A C123A U131G, -4.1; in that of G35A G57U A74U, -4.21. In the case of A37G C49U C82A U87C U106G U133G it was -2.13; in that of A37G C49G C64G A111U U126G, -6.45. In the case of G35U G113A it was -6.27; in that of A37G C70G, -3.43; in that of A37U C64U C88U C102A, -2.71. As to G36C C56U, the “polymerase ribozyme fitness (log ratio)” value is -0.42. In the case of A37U A105C it was -3.01.

As for G35U C70U C72U G120C, the “polymerase ribozyme fitness (log ratio)” value was -6.33.

In the case of G35U G63U C101A C115U, the “polymerase ribozyme fitness (log ratio)” value was -5.79. Regarding A37C C62G G120U U125G U130C, the “polymerase ribozyme fitness (log ratio)” value is -3.18. In the case of G36U U125A U133A it was -2.46; in that of C34U U54A G69U C79U G93A U96A, -6.73. In the case of G36A C64U C72A U106A it was -0.401; in that of C34G G61A G113U G122U, -7.08. For the variant C34U G52U G69C C79G A100G C114U, the “polymerase ribozyme fitness (log ratio)” value is -5.24. In the case of G36C C70G it was -5.05. In the case of G36A G71A it was -1.64; in that of A37U U112A, 0.71.

Turning to G36A, the “polymerase ribozyme fitness (log ratio)” value is -0.858. G36U: the “polymerase ribozyme fitness (log ratio)” value was -1.06. In the case of G36C it was -1.27. On to U38A G61U, for which the “polymerase ribozyme fitness (log ratio)” value is -0.881. In the case of G35A G61C it was -5.94; in that of G36C G44A G71A A75G C89A, -3.61. In the case of G36A G42A C70U C72U it was -4.5; in that of A37U A75U G120C, 1.14; in that of C34G C89U, -7.42.

As for C34U G44C U87A C89G C115A, the “polymerase ribozyme fitness (log ratio)” value is -4.92. Take G36A G69A: the “polymerase ribozyme fitness (log ratio)” value was -3.69. In the case of A37U C104U U116C it was -0.911; in that of U38A C73G C101A A119U A121U G122U, -2.99; in that of G35A A46U A83U U87C C104U, -4.09. As for G35A C98G, the “polymerase ribozyme fitness (log ratio)” value is -6.5.

As to C34U A50U C102U U109A C124U, the “polymerase ribozyme fitness (log ratio)” value is -5.84. In the case of G36U A91U it was -2.67. In the case of G36C A100U A111G it was -1.04; in that of C34U U59A U106A U109A G120A, -5.08; in that of C34U G63C A111C U132A, -4.98. Take G36C C76A U106A G110A: the “polymerase ribozyme fitness (log ratio)” value was -4.36. In the case of G35C U81A U109A C114A C123G it was -5.16. In the case of A37U G44A it was -2.19; in that of G36U C115U, -2.01; in that of G36C G69A U112G G117A, -6.31.

Take A37G C104G: the “polymerase ribozyme fitness (log ratio)” value is -6.69. For the variant G35U U67C U109A C115U, the “polymerase ribozyme fitness (log ratio)” value was -5.63.

Take A37C G39U C56U: the “polymerase ribozyme fitness (log ratio)” value is -2.66. In the case of A37C G71C it was -1.27; in that of A37G C56U C102A, -1.87. With G35U C72A, the “polymerase ribozyme fitness (log ratio)” value was -5.07. In the case of A37U C73G it was -1.27; in that of G36C C40U G48U U125A, -3.35. In the case of A37C C53U C123U it was 0.761; in that of G35U C123A, -3.61; in that of G35U C123U, -2.85. In the case of G36U U112G G113U it was -3.55; in that of C34G U59A G117U U129G, -8.01; in that of A37U A50U C94U, -1.81. For the variant G35C G120U, the “polymerase ribozyme fitness (log ratio)” value was -3.99. Consider G35A C64U U87G, for which the “polymerase ribozyme fitness (log ratio)” value is -4.86.

Consider A37U C72U U96A, for which the “polymerase ribozyme fitness (log ratio)” value was -0.172.

G36U G39U G44A: the “polymerase ribozyme fitness (log ratio)” value is -4.17.

For G35A A74C C101U, the “polymerase ribozyme fitness (log ratio)” value is -4.16.

With G36A C49A G110C, the “polymerase ribozyme fitness (log ratio)” value was -5.65. In the case of G36A C82G C123U it was -0.368; in that of G35A G52C C86U, -6.34; in that of A37G U55A C73U A83C A90U U125A, -2.61.
